Test results: US20250297232A1, “BACTERIAL MYELOPEROXIDASE-CATALASE AND APPLICATIONS THEREOF” (priority 2022, published 2025)

Columns and labels:
[1] = Steady-state kinetics by stopped-flow, NaSCN (hypothiocyanate formation, 240 nm); type: biochemical; settings: for kss: SCN^− 5 mM, 267 nM RbMPO, H2O2 79 μM
Procedure: (§1) pH- and temperature-dependent studies were carried out for each substrate.
(§2) These temperatures were reached by using a stopped-flow coupled to a cryostat.
(§3) For temperature and pH measurements, RbMPO was set at the same concentration as in the determination of steady state kinetics parameters.

[2] = system: E. coli strain ATCC 25922; assay: Microbicidal activity: bacterial growth kinetics in a microplate (A620nm, 16 h); type: cell-based; settings: for inhibition of bacterial growth: glucose 14 mM, pH 7.4, 37° C.
Procedure: The microbicidal activity of RbMPO towards the E. coli strain ATCC 25922 was evaluated by two independent experiments.
E. coli 25922 were grown on TSB-agar for 16 h at 37° C. One colony is grown in 10 ml of TSB medium under stirring at 190 rpm at 37° C. The optical density (OD) of the bacterial preculture was measured at 620 nm in a spectrophotometer (Ultrospec 10, Biochrom). 25 ml of TSB medium was inoculated to obtain an OD of approximately 0.09. When the OD was between 1 and 2, a dilution in 10 mL of TSB medium was performed to obtain 2×10^6 CFU/ml. Bactericidal tests were performed in 96-well microplates under a final volume of 100 μl with 10^6 CFU/ml. The plate cover was treated with 0.05% TritonX−100 and 20% ethanol to prevent condensation and thus avoid misreading of the wells by the instrument. The solution was allowed to act on the lid for 10 minutes, then removed and dried under a class II biological safety cabinet. Each tested condition was performed at least in triplicate and each experiment was repeated at least 3 times. The kinetics was set to 16 h with a measurement at 620 nm every 15 minutes in a microplate reader (Wallac Victor 2,1420 Multilabel counter) thermostated at 37° C. [shaking duration: 10.0s; shaking speed: fast; shaking diameter: 0.5 mm; shaking type: orbital; measurement time: 0.2s; numbers of replicates: 60; time between replicates: 900 s; label: P620]. […] 5 mM bleach was used as a positive control and bacteria alone was used as a negative control. • By counting colonies on Petri dishes

[3] = Stability of myeloperoxidase activity of wt RbMPO on storage in different buffers; type: physicochemical; settings: stored in PBS buffer pH 6.6 at 37° C., up to 60 minutes
Procedure: The enzyme was concentrated at […] for the 4° C. storage condition and at 132.2 μM for the 37° C. storage condition. The MPO activity of the enzyme was assessed at different time points by a standard activity test.
The MPO activity of the enzyme was assessed at different time points by a standard activity test. To do so, the concentrated enzyme was diluted and contacted with H2O2, NaCl and APF.
The value obtained at TO is defined as 100% of the enzymatic (MPO) activity at the temperature tested and all the other activities are calculated from this TO timepoint.

[4] = Heme reconstitution of apo wt and mutated RbMPOs (tryptophan fluorescence quenching); type: binding; settings: heme reconstitution of apo enzyme; 1 μM enzyme, 50 mM sodium phosphate pH7.5, 25° C.
Procedure: Sample dilutions were performed in a 50 mM pH7.5 sodium phosphate buffer.

[5] = Steady-state kinetics by stopped-flow, NaCl (Tau-NHCl formation, 253 nm); type: biochemical; settings: NaCl range (k2), 300 nM of enzyme and 79 μM of H2O2
Procedure: as §1, §2, §3

[6] = Pre-steady state: return of wt RbMPO to its native state, I^− range; type: biochemical; settings: from pre-steady state return to native state with I^−, SCN^−, Br^−, Cl^−
Procedure: (§4) Kinetic parameters under pre-steady-state condition were performed with a Biologic SFM400 stopped-flow at 412 nm, 37° C. and with 50 mM sodium phosphate buffer at pH7.5. […] An exponential linear fit was applied to each kinetic using the following formula: […]
(§5) The return of the enzyme to its native state was studied by the impact of increasing concentrations of (pseudo)-halides substrates on compound I (FIG. 9B). […] It is the time difference (s) between the two characteristic steps that allowed the calculation of the values of the Vreturn(μM^−1.s^−1) values: […]

[7] = Catalase activity (absorbance decay at 240 nm, stopped-flow); type: biochemical; settings: for kss: catalase, 300 nM enzyme, pH 7.5, 500 μM H2O2; for catalase activity, in words: 2 μM wt RbMPO, 37° C.
Procedure: Catalase activity was measured using the stopped-flow set-up, which was configured to measure absorbance decay at 240 nm and at 37° C.

[8] = Pre-steady state: return of wt RbMPO to its native state, Br^− range; type: biochemical; settings: H2O2: 20 μM
Procedure: as §4, §5

[9] = Peroxidase activity with ABTS; type: biochemical; settings: ABTS range; 0.5 nM wt RbMPO, 79 μM H2O2, pH5.5, 37° C.
Procedure: The plate reader was configured to run a 10 min kinetics at 430 nm with the following ABTS concentration range: 0, 0.1, 0.2, 0.5, 1, 2, 5, 10, 15, 20, 30 and 40 mM.

[10] = Steady-state kinetics by stopped-flow, H2O2 range at fixed (pseudo)-halogen ions; type: biochemical; settings: wt RbMPO 267 nM
Procedure: For the halides Cl^− and Br^−, the ranges were not performed at halide saturation but at 500 and 100 mM respectively (data not shown).

[11] = Pre-steady state: return of wt RbMPO to its native state, Cl^− range; type: biochemical; settings: H2O2: 20 μM
Procedure: as §4, §5

[12] = Steady-state kinetics by stopped-flow, NaBr (Tau-NHBr formation, 289 nm); type: biochemical; settings: Br^− 500 mM, 267 nM RbMPO, H2O2 79 μM
Procedure: as §1, §2, §3

B1: wt RbMPO: novel bacterial heme peroxidase (myeloperoxidase-catalase) of about 78 KDa from Rhodopirellula baltica, SEQ ID NO: 1, produced recombinantly in E. coli (protein, listed as Rhodopirellula baltica)
chain: MLFWSKRTRKHPGRKRRRLRSEQLESRQLLAADFGGYRHNIYDAEDVNDDGRVSAIDALLVINAMTSETSRDENVFTDVNGDGRRSALDALRVINRIERGDVFPIDTSGDEDLNTLLPEMPSEVRSIDGSGNNPNDHLWGSVGQRLIRMAPAAYGDGISTLAGANRPSAREVSNVLSAMNTSQVLNDRGLSAFVYVWGQFIDHDLGLTESDEHGEAIDISVPEGDLWFDPMGSGEAVIPMTRTPIADGTGTSVGNPAQQFNQITAFIDGSMVYGSDAATAERLRTFAGGRLAISDNGLLPMDESGMVIAGDVRASENVGLTAIQTLFVREHNRLADEIFAADPEATDEEIYQRARLVVASLIQSITYNEFLPALLGQRAMDSYRGYDASVNPGIANEFSTAAFRLGHSTLRDEVGFMSNDGRESKDEMELKDAFFHASMLEETGIDSLLKFDASVQAQEIDLAVVDSLRNFLFGPPGAGGLDLVAMNIQRGRDHGLSDYNTTRQAYGLDRVETFDQITGDVELQQKLASLYGTVDNIDLWVGLMAEDHQHDASVGELTGLIIADQFQRTRDGDRFFYKNVLTDSEVESIERSTLADLIERNTSVDGLQENVFFMQVELRGRVILASSIPPNTMPSEVREEEIRGVSGMAIELIDASGKLVDSTVSDQHGNYRFRALSETGDYQVRLSESGEAMDVLVAHGAERIRGLDFIVLA
With B1 the kss ([1]; 37° C., pH 4) was 0.7 ± 0.04 s⁻¹, the kss ([1]; 37° C., pH 5) was 5.4 ± 0.02 s⁻¹ and the kss ([1]; 37° C., pH 6) was 27.0 ± 0.06 s⁻¹. For the same molecule, the kss ([1]; 37° C., pH 7) was 42.8 ± 0.13 s⁻¹, the kss ([1]; 37° C., pH 8) was 20.4 ± 0.03 s⁻¹ and the kss ([1]; 37° C., pH 9) was 3.1 ± 0.02 s⁻¹. It also gave a kss ([1]; 37° C., pH 10) of 0 ± 0 s⁻¹, a kss ([1]; pH 7.5, 10° C.) of 5.0 ± 0.01 s⁻¹ and a kss ([1]; pH 7.5, 20° C.) of 37.6 ± 0.10 s⁻¹. For the same molecule, the kss ([1]; pH 7.5, 30° C.) was 56.3 ± 0.10 s⁻¹, the kss ([1]; pH 7.5, 37° C.) was 63.2 ± 0.11 s⁻¹ and the kss ([1]; pH 7.5, 40° C.) was 55.5 ± 0.14 s⁻¹. The kss ([1]; pH 7.5, 50° C.) was 56.5 ± 0.14 s⁻¹, the kss ([1]; pH 7.5, 60° C.) was 67.2 ± 0.22 s⁻¹ and the substrate specificity ([1]; from steady-state NaSCN, NaBr and NaCl ranges) was “SCN^−>Br^−>Cl^−”. The “excess of wt RbMPO over GOxaspniger required for 100% bactericidal effect” value ([2]; 10 nM GOxaspniger, 25 mM SCN^−, pH 7.4) was “at least 15 times”, the “inhibition of bacterial growth” value ([2]; 150 nM wt RbMPO and 10 nM GOxaspniger (15:1 ratio), 25 mM SCN^−) was 100% and the “inhibition of bacterial growth” value ([2]; 300 nM wt RbMPO and 25 nM GOxaspniger (12:1 ratio), 25 mM SCN^−) was 100%. For the same molecule, the “inhibition of bacterial growth” value ([2]; 300 nM wt RbMPO and 30 nM GOxaspniger (10:1 ratio), 25 mM SCN^−) was 100%, the bactericidal effect ([2]; 25 mM SCN (pH 7.4), between 10 and 30 nM GOxaspniger, from 300 nM wt RbMPO) was 100% and the “fall of myeloperoxidase activity” value [3] was 50%. For the same molecule, the k2 [4] was 1430 ± 74.4 M⁻¹ s⁻¹, the “kss/[Cl^−]” value [5] was 5.46 ± 0.67 M⁻¹ s⁻¹ and the substrate specificity [6] was “I^−>SCN^−>Br^− Cl^−”. The catalase activity kept ([7]; about 50° C. to about 60° C.) was “more than 80%”, the catalase activity kept ([7]; between 20° C. and 40° C.) was “more than 90%” and the kss ([7]; 10° C.) was 2.04 ± 0.01 s⁻¹. It also gave a kss ([7]; 20° C.) of 2.55 ± 0.02 s⁻¹, a kss ([7]; 30° C.) of 2.75 ± 0.01 s⁻¹ and a kss ([7]; 37°) of 2.78 ± 0.01 s⁻¹. For the same molecule, the kss ([7]; 40° C.) was 2.64 ± 0.01 s⁻¹, the kss ([7]; 50° C.) was 2.43 ± 0.01 s⁻¹ and the kss ([7]; 60° C.) was 2.39 ± 0.01 s⁻¹. The “catalase activity, in words” value ([7]; pH4, 5, 8 and 9) was “no detectable catalase activity”, the “catalase activity, in words” value ([7]; pH6 and pH10) was “negligible” and the kreturn/K1/2 [8] was 607.77 ± 161.51 M⁻¹ s⁻¹. The k2 [9] was 10620 M⁻¹ s⁻¹, the KMapp ([10]; Br (100 mM)) was 0.23 ± 0.21 mM and the KMapp ([10]; SCN (5 mM)) was 0.12 ± 0.04 mM. The kreturn/K1/2 [11] was 5169 ± 4872 M⁻¹ s⁻¹, the kss ([12]; 37° C., pH 4) was 0 ± 0 s⁻¹ and the kss ([12]; 37° C., pH 5) was 1.5 ± 0.004 s⁻¹. It also gave a kss ([12]; 37° C., pH 6) of 14.5 ± 0.03 s⁻¹, a kss ([12]; 37° C., pH 7) of 11.0 ± 0.02 s⁻¹ and a kss ([12]; 37° C., pH 8) of 4.8 ± 0.01 s⁻¹. The kss ([12]; 37° C., pH 9) was 1.3 ± 0.004 s⁻¹, the kss ([12]; 37° C., pH 10) was 0.8 ± 0.007 s⁻¹ and the kss ([12]; pH 7.5, 10° C.) was 9.5 ± 0.01 s⁻¹. It also gave a kss ([12]; pH 7.5, 20° C.) of 23.4 ± 0.02 s⁻¹, a kss ([12]; pH 7.5, 30° C.) of 24.8 ± 0.02 s⁻¹ and a kss ([12]; pH 7.5, 37° C.) of 19.5 ± 0.01 s⁻¹. The kss ([12]; pH 7.5, 40° C.) was 29.1 ± 0.02 s⁻¹, the kss ([12]; pH 7.5, 50° C.) was 21.1 ± 0.01 s⁻¹ and the kss ([12]; pH 7.5, 60° C.) was 37.8 ± 0.03 s⁻¹.
